In patent US20050182242A1, “Global analysis of protein activities using proteome chips” (priority 2001, published 2005):

B1: FBP26: yeast GST-HisX6 fusion protein on proteome chip (protein, UniProt P32604 1-452, looked up)
Fructose-2,6-bisphosphatase: MGYSTISNDNDIKVCVIMVGLPARGKSFISQKIIRYLSWLSIKAKCFNVGNYRRDVSGNVPMDAEFFNFENTDNFKLRELAAQNAIKDIVNFFTKEDGSVAVFDATNSTRKRRKWLKDICEKNNIQPMFLESWSNDHELIINNAKDIGSTSPDYENSEPHVAEADFLERIRQYERFYEPLDPQKDKDMTFIKLVNIIEEVVINKIRTYLESRIVFYVMNIRPKPKYIWLSRHGESIYNVEKKIGGDSSLSERGFQYAKKLEQLVKESAGEINLTVWTSTLKRTQQTANYLPYKKLQWKALDELDAGVCDGMTYEEIEKEYPEDFKARDNDKYEYRYRGGESYRDVVIRLEPVIMELERQENVLIITHQAVLRCIYAYFMNVPQEESPWMSIPLHTLIKLEPRAYGTKVTKIKANIPAVSTYKEKGTSQVGELSQSSTKLHQLLNDSPLEDKF
modifications: GST-His6 tag
notes: yeast GST-HisX6 fusion protein on proteome chip
B2: FUR1: yeast GST-HisX6 fusion protein on proteome chip (protein, UniProt P18562 1-216, looked up)
Uracil …: MSSEPFKNVYLLPQTNQLLGLYTIIRNKNTTRPDFIFYSDRIIRLLVEEGLNHLPVQKQIVETDTNENFEGVSFMGKICGVSIVRAGESMEQGLRDCCRSVRIGKILIQRDEETALPKLFYEKLPEDISERYVFLLDPMLATGGSAIMATEVLIKRGVKPERIYFLNLICSKEGIEKYHAAFPEVRIVTGALDRGLDENKYLVPGLGDFGDRYYCV
modifications: GST-His6 fusion tag
notes: as for B1
B3: MET8: yeast GST-HisX6 fusion protein on proteome chip (protein)
chain: MVKSLQLAHQLKDKKILLIGGGEVGLTRLYKLIPTGCKLTLVSPDLHKSIIPKFGKFIQNEDQPDYREDAKRFINPNWDPTKNEIYEYIRSDFKDEYLDLEDENDAWYIIMTCIPDHPESARIYHLCKERFGKQQLVNVADKPDLCDFYFGANLEIGDRLQILISTNGLSPRFGALVRDEIRNLFTQMGDLALEDAVVKLGELRRGIRLLAPDDKDVKYRMDWARRCTDLFGIQHCHNIDVKRLLDLFKVMFQEQNCSLQFPPRERLLSEYCSS
modifications: left off: a dimerising Fc or GST
notes: as for B1
B4: KCC4: yeast GST-HisX6 fusion protein on proteome chip (protein, UniProt P25389 1-1037, looked up)
Probable …: MTVANTETHSAAKPSSTIGPWKLGETLGFGSTGKVQLAQHERTGHRTAVKVISKSIFNNNGNHSNDDSVLPYNIEREIVIMKLLSHPNVLSLYDVWETNNNLYLILEYAEKGELFNLLVDHGPLPEREAINCFRQIIIGISYCHALGIVHRDLKPENLLLDSFYNIKIADFGMAALQTDADLLETSCGSPHYAAPEIVSGLPYEGFASDVWSCGVILFALLTGRLPFDEENGNVRDLLLKVQKGQFEMPNDTEISRDAQDLIGKILVVDPRQRIKIRDILSHPLLKKYQTIKDSKSIKDLPRENTYLYPLADSNNHTSASIDDSILQNLVVLWHGRHADDIVSKLKENGTNKEKILYALLYRFKLDSVRGSNKKNRNKIKKTKKNKRSSTLSSSSSLLLNNRSIQSTPRRRTSKRHSREFSSSRKRSSFLLSSNPTDSSPIPLRSSKRITHINVASANTQATPSGVPNPHKRNSKKRSSKRLSYMPNTKRSSLTSKSLSNFTNLIDDDDWEYIEKDAKRTSSNFATLIDEIFEPEKFELAKREKAELQRKVQEAKRQSVNAQKINEDEFGSEVSDGMKELKKINDKVSSPLINYEFSQQELLQDIDTLLTNRYQLSSYTRPISRLDPGLTPVTETLPNNLKEKTALLQDTEKKIIETIRRSKFLGSLLNVRGGLSPGKSELAPIEESPIVSTTPLIYNDRMEPRRISDVEVPHFTRKSKHFTTANNRRSVLSLYAKDSIKDLNEFLIKEDPDLPPQGSTDNESRSEDPEIAESITDSRNIQYDEDDSKDGDNVNNDNILSDFPQGVGISQEYDMKDKNPNQSPISKSAEPTLVVKLPSLSSFQGKNASGLGLYQREPSKVTLPSLTSNNSSVGENIEDGAEKGTESEKIAASLSDDDLKEDNDKKDNDTVNAPTTVKKPPNSVLLKKFSKGKILELEIHAKIPEKRLYEGLHKLLEGWKQYGLKNLVFNITNMIITGKLVNDSILFLRSTLFEIMVLPNGDGRSLIKFNKKTGSTKTLTKLATEIQIILQKEGVLDK
modifications: GST-HisX6 tag
notes: as for B1
B5: ARP10: yeast GST-HisX6 fusion protein on proteome chip (protein, UniProt Q04549 1-284, looked up)
Actin-like protein ARP10: MSNTIVIVYLGANRIEIGRSADACPQEIIAWKTGSINEKNREELKKIFEHYFQICNILGNREVQVLILEDIFISVVEKRIICSILFKEFDCAHVSFVPRAIVHCLSCNTRNAIVIDIGTNYTTCVPIFDLRPLQQFIKYSKRGKRQVESRIPLPGSLYMPIFFDEEYNSKNCEVDETPVINLVKNIVESLPIDLRRPLRENIIIVNIEEAYETVIRNLFKLKMDTSKIQFPKNYWQAGSACAKILLHYKGSNIVGIERDEFYNNPHIAPDWFDYYFRTGVKRLQ
modifications: GST-HisX6 tag
notes: as for B1
B6: ROT1: yeast GST-HisX6 fusion protein on proteome chip (protein, UniProt Q03691 25-256, looked up)
Protein ROT1: EDESNSIYGTWSSKSNQVFTGPGFYDPVDELLIEPSLPGLSYSFTEDGWYEEATYQVSGNPRNPTCPMASLIYQHGTYNISENGTLVLNPIEVDGRQLFSDPCNDDGVSTYSRYNQTETFKEYAVGIDPYHGIYTLQLYQYDGTPMQPLYLAYRPPMMLPTETLNPTSSATSTDDPSSNKKRSLRSLVRRSLENRHKTNAIKRQNTSFLTSNAIWYISAGMLGVGSLLFLAF
modifications: GST-His6 tag
notes: as for B1

What follows are molecules tested on PI(3,4,5)P3 liposomes (assay: Yeast proteome chip probed with PI(3,4,5)P3 liposomes). Conditions: liposome binding signal on yeast proteome chip, Cy3-streptavidin detection.

Going from B1 to B2, the “PI(3, 4, 5)P3” value rises from 25.31 to 72.22.

Compared with B3, B4 is higher in “PI(3, 4, 5)P3” value: 25.42 for the first, 65.47 for the second.

First: B5
Second: B6
The “PI(3, 4, 5)P3” value of the first is lower: 30.15 for the first, 99.11 for the second.

These molecules were tested on PI(3,4)P2 liposomes (assay: Yeast proteome chip probed with PI(3,4)P2 liposomes). Conditions: liposome binding signal on yeast proteome chip, Cy3-streptavidin detection.

Going from B1 to B2, the “PI(3, 4)P2” value rises from 48.51 to 210.19.

First: B3
Second: B4
The “PI(3, 4)P2” value of the first is lower: 95.44 for the first, 234.84 for the second.

First: B5
Second: B6
The “PI(3, 4)P2” value of the first is lower: 29.20 for the first, 137.98 for the second.

Each molecule was assayed on phosphatidylcholine (PC) liposomes (assay: Yeast proteome chip probed with PC liposomes). Conditions: liposome binding signal on yeast proteome chip, Cy3-streptavidin detection.
Method in brief: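 Sonicated liposomes in TBS, of phosphatidylcholine with 1% (w/w) biotin-DHPE plus 5% (w/w) of the named phosphoinositide (PC-only liposomes lacking it), were incubated on blocked chips of GST-RGS-His6-tagged yeast ORF proteins for 1 h at RT. Bound liposomes were detected with Cy3- or Cy5-streptavidin after PBS washes.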

First: B1
Second: B2
The PC of the first is higher: 107.41 for the first, 95.67 for the second.

First: B3
Second: B4
The PC of the first is higher: 188.12 for the first, 123.26 for the second.

First: B5
Second: B6
The PC of the first is lower: 119.74 for the first, 121.50 for the second.

What follows are molecules tested on PI(4)P liposomes (assay: Yeast proteome chip probed with PI(4)P liposomes). Conditions: liposome binding signal on yeast proteome chip, Cy3-streptavidin detection.

Compared with B1, B2 is higher in “PI(4)P” value: 62.06 for the first, 148.94 for the second.

Compared with B3, B4 is lower in “PI(4)P” value: 175.94 for the first, 84.92 for the second.

Going from B5 to B6, the “PI(4)P” value falls from 98.64 to 52.04.

Each molecule was assayed on PI(3)P liposomes (assay: Yeast proteome chip probed with PI(3)P liposomes). Conditions: liposome binding signal on yeast proteome chip, Cy3-streptavidin detection.

First: B1
Second: B2
The “PI(3)P” value of the first is lower: 5.75 for the first, 112.25 for the second.

Compared with B3, B4 is lower in “PI(3)P” value: 117.00 for the first, 33.50 for the second.

Going from B5 to B6, the “PI(3)P” value falls from 51.00 to 33.25.

Each molecule was assayed on PI(4,5)P2 liposomes (assay: Yeast proteome chip probed with PI(4,5)P2 liposomes). Conditions: liposome binding signal on yeast proteome chip, Cy3-streptavidin detection.

Compared with B1, B2 is higher in “PI(4, 5)P2” value: 47.90 for the first, 111.70 for the second.

Going from B3 to B4, the “PI(4, 5)P2” value falls from 244.09 to 67.06.

First: B5
Second: B6
The “PI(4, 5)P2” value of the first is lower: 32.01 for the first, 63.58 for the second.
